Results as given in patent US20260109776A1 (Amgen, published 2026).
Where two headings read alike, the source gives them in different places.

T1: mouse CD40 on cells (mouse, UniProt P27512 20-289)
T1 construct: whole, on cells; also called mouse CD40 on HEK293 cells; CD40 on mouse B cells
T1 sequence (looked up): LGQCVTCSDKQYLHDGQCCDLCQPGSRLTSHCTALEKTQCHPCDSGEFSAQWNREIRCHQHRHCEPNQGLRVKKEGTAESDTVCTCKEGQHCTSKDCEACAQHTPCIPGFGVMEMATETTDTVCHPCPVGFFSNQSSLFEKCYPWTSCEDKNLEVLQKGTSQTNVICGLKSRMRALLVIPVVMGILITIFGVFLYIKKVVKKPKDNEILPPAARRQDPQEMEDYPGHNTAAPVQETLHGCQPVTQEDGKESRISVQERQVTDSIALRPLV

T2: cynomolgus monkey CD40 (cynomolgus monkey, UniProt P25942 21-193 (human entry), limits assumed)
T2 chain: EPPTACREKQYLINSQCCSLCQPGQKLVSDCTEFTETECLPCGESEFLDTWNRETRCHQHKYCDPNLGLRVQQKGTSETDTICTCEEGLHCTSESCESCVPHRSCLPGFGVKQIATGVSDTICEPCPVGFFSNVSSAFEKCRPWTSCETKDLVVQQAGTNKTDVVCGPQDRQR

T3: human TNFR1 (human, UniProt P19438 30-455)
T3 construct: whole, on cells
T3 sequence (looked up): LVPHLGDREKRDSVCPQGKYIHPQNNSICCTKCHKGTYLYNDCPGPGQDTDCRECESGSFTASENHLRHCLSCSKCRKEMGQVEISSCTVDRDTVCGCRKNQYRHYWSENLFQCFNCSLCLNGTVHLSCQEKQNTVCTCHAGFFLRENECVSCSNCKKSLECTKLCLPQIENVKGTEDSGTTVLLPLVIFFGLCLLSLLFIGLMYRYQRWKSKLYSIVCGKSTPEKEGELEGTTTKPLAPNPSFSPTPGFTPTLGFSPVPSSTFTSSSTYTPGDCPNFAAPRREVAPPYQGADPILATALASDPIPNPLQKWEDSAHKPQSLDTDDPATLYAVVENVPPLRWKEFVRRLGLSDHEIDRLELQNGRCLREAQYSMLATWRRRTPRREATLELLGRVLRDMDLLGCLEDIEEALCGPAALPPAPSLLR

T4: human TNFR2 (human, UniProt P20333 23-461)
T4 construct: whole, on cells
T4 sequence (looked up): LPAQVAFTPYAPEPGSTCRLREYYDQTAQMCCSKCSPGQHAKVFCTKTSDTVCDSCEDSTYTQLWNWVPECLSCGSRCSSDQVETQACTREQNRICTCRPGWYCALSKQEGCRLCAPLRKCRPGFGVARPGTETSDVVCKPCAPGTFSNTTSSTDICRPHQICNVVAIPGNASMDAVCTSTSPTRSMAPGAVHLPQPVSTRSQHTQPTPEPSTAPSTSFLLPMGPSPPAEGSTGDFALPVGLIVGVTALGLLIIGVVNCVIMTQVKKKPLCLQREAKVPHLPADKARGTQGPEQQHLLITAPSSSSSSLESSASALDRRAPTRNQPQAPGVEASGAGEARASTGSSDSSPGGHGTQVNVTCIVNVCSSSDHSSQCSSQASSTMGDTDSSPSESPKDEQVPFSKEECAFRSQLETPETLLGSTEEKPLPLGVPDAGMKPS

T5: human TNFR14 (human, UniProt Q92956 39-283)
T5 construct: whole, on cells
T5 sequence (looked up): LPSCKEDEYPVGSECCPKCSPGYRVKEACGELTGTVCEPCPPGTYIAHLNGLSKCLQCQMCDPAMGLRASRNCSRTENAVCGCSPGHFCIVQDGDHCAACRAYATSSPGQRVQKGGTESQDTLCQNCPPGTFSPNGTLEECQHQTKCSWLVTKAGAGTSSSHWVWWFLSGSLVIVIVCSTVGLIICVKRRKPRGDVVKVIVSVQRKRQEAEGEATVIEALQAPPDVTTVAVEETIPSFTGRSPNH


Columns and labels:
human CD40 on cells [1] = target: T6, human CD40 on cells (human, UniProt P25942 21-277); test: cell-based or functional assay
Target sequence in this assay (P25942 21-277 limits assumed): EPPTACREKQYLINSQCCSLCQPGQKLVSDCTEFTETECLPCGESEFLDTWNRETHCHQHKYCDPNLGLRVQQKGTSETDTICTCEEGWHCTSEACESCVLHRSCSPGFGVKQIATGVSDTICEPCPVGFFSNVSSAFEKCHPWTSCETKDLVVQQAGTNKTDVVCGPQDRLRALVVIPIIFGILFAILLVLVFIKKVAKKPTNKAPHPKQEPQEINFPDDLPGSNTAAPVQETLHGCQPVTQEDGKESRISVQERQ

human CD40 on cells [2] = target: T6, human CD40 on cells; test: flow cytometry, labelled CD40L on CD40-293T cells, antibody at 2.5 ug/ml
Procedure: (§1) Percent ligand binding inhibition was calculated as [(CD40L binding gMFI in the absence of anti-CD40)−(CD40L binding gMFI in the presence of anti-CD40)]/(CD40L binding gMFI in the absence of anti-CD40). gMFI: geometric mean fluorescent intensity. All anti-CD40 antibodies show minimal effects on the ability of CD40L to bind to the CD40 receptor (Table 7).
Target sequence in this assay (P25942 21-277 limits assumed): as above

mouse CD40 on cells = target: T1, mouse CD40 on cells; test: flow cytometry, HEK293 transfectants
human CD40 on cells [3] = target: T6, human CD40 on cells; test: cell-based or functional assay; remark: listed apart in the source
human CD40 on cells [4] = target: T6, human CD40 on cells; test: flow cytometry, labelled CD40L on CD40-293T cells, antibody at 20 ug/ml
Procedure: as §1
Target sequence in this assay (P25942 21-277 limits assumed): as above

human CD40 = human CD40 (human, UniProt P25942 21-193, limits assumed); test: Octet
human CD40, sequence (P25942 21-193 limits assumed): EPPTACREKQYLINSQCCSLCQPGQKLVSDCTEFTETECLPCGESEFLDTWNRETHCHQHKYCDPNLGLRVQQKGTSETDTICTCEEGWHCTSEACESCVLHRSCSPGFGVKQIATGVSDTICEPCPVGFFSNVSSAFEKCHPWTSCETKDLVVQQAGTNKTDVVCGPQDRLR
Procedure: (§2) The binding affinity of anti-human CD40 antibodies to human and cynomolgus monkey CD40 was measured by Octet assay (Table 3), quantifying association rate (Kon), disassociation rate (Kdis), and equilibrium binding constant (KD). Cross-reactivity of anti-CD40 antibodies to related TNF receptor superfamily (TNFRSF) members was evaluated by expressing human TNFR1, TNFR2, TNFR10, or TNFR14 on HEK293 cells by transient transfection of expression vectors encoding these genes. Binding of indicated anti-human CD40 antibody to these transfected cells was determined by flow cytometry. […] Cross-reactivity of anti-CD40 antibodies to cynomolgus monkey and mouse CD40 was evaluated by expressing cynomolgus monkey or mouse CD40 on HEK293 cells by transient transfection of expression vectors encoding these genes. Binding of indicated anti-human CD40 antibody to cells overexpressing cynomolgus monkey and mouse CD40 was determined by flow cytometry.

cynomolgus monkey CD40 = target: T2, cynomolgus monkey CD40; test: Octet
Procedure: as §2

human CD40 on cells [5] = target: T6, human CD40 on cells; test: flow cytometry, labelled CD40L on CD40-293T cells, antibody at 5 ug/ml
Procedure: as §1
Target sequence in this assay (P25942 21-277 limits assumed): as the sequence (P25942 21-277 limits assumed) above

human TNFR1 = target: T3, human TNFR1; test: flow cytometry, HEK293 transfectants
Procedure: as §2

human TNFR2 = target: T4, human TNFR2; test: flow cytometry, HEK293 transfectants
Procedure: as §2

human TNFR14 = target: T5, human TNFR14; test: flow cytometry, HEK293 transfectants
Procedure: as §2

human B cell proliferation, no crosslinking, % Max Activity (human CD40 on cells [1]) [%] | human B cell proliferation, no crosslinking, EC50 (human CD40 on cells [1]) [nM] | human B cell proliferation, with protein G crosslinking, % Max Activity (human CD40 on cells [1]) [%] | human B cell proliferation, with protein G crosslinking, EC50 (human CD40 on cells [1]) [nM] | Ligand Binding Inhibition (%) (human CD40 on cells [2]) | binding result (mouse CD40 on cells) | human B cell proliferation, no crosslinking, EC50 (human CD40 on cells [3]) [nM] | human B cell proliferation, no crosslinking, Max Fold Change (human CD40 on cells [3]) [fold] | human B cell proliferation, with protein G crosslinking, EC50 (human CD40 on cells [3]) [nM] | human B cell proliferation, with protein G crosslinking, Max Fold Change (human CD40 on cells [3]) [fold] | Ligand Binding Inhibition (%) (human CD40 on cells [4]) | Kd (human CD40) [nM] | koff (human CD40) [s⁻¹] | kon (human CD40) [M⁻¹ s⁻¹] | Kd (cynomolgus monkey CD40) [nM] | koff (cynomolgus monkey CD40) [s⁻¹] | kon (cynomolgus monkey CD40) [M⁻¹ s⁻¹] | Ligand Binding Inhibition (%) (human CD40 on cells [5]) | binding result (human TNFR1) | binding result (human TNFR2) | Binder | also measured
6.5 | > 16.7 | 73.4 | 0.26 | -8 | no binding | > 16.7 | 1.21 | 0.237 | 18.2 | 7 | 1.34 | 0.00068 | 509000 | 1.04 | 0.000577 | 556000 | 4 | no binding | no binding | 33H6 (antibody, IgG4, V domains shown, also called 4883-1) VH: QVQLVQSGAEVKKPGASVKVSCKASGYTFPGYYMYWLRQAPGQGLEWMGWINPDSGDTNYAQKFQGRVTMTRDTSISTAFMELSRLRSDDTAVYYCAREKPRYFDSFYYYLMDVWGQGTTVTVSS VL: DIQMTQSPSSLSASVGDRVTITCRAGQNISRHLNWYQQNPGKAPKVLIHPASSLPSGVPSRFSGSGSGTDFSLTISSLQPEDFGTYFCQQSYSTPPTFGGGTKVELKR | binding result (human TNFR14): no binding
4.4 | > 16.7 | 65.9 | 0.37 | -11 | no binding | > 16.7 | 1.35 | 0.235 | 18.2 | -7 | 0.41 | 0.000164 | 398000 | 0.39 | 0.000244 | 612000 | -8 | no binding | no binding | 29H10 (antibody, V domains shown, also called 4877-1) VH: QVQLVQSGAEVTKPGASVKVSCKASGYTFAGYYMHWVRQAPGQGLEWMGWINPHSGGTNYAQKFQDRVTMTRDTSINTAYMELSRLRSDDTAVYYCARERISMVRGVGHNWFAPWGQGTLVTVSS VL: DIQMTQSPSSLSASVGDRVTITCRASQDISNNLAWFQQKPGKPPKSLMYAASSLHSGVPSTFSGSGSGTDFTFTISSLQPEDFATYYCQQYNSYPLTFGGGTKVEIRR | binding result (human TNFR14): no binding
0.4 | > 16.7 | 80.9 | 0.3 | -19 | no binding | > 16.7 | 1.19 | 0.504 | 27.1 | 12 | 1.1 | 0.000672 | 612000 | 0.73 | 0.000387 | 531000 | 2 | no binding | no binding | 37A6 (antibody, IgG4, V domains shown, also called 4865-1) VH: QVQLVESGGGLVKPGGSLRLSCAASEFTFSDYYMSWIRQAPGKGLEWVSYISRSGDTIYYADSVKGRFTISRDNAKNSLYLQMNGLRAEDTAVYYCARDLAAGATGGLDCWGQGTLVTVSS VL: SYELTQPPSVSVSPGQTASITCSGERLGNKYICWYQQKPGQSPVLVIYQDFKRPSGIPERFSGSNSGITATLTISGTQAMDEADYYCQAWDSRTVVFGGGTKLTVLG | binding result (human TNFR14): no binding
8.2 | > 16.7 | 81.9 | 0.3 | 1 | no binding | > 16.7 | 1.83 | 0.558 | 16.9 | 1 | 6.87 | 0.000443 | 64500 | 4.02 | 0.00021 | 52200 | 10 | no binding | no binding | 36F3 (antibody, IgG4, V domains shown, also called 4891-1) VH: QVQLQQSGPGLVKPSQTLSLTCAISGDSVSSSRTAWNWIRQSPSRGLEWLGRTYYRSKWYHDYSVSVKSRITIDPDTSKNQFSLQLNSVTPEDTAVYYCARGAAPFDYWGQGTLVTVSS VL: EIVLTQSPGTLSLSPGERATLSCRASQSVSSNYLAWYQQKPGQAPRALIYAASNRAAGISDRFSGSGSGTDFTLTISRLEPEDFAVYFCQQYGSSPLTFGGGTKVEIKR | binding result (human TNFR14): no binding
